Data from patent publication US11844843 (DYNE THERAPEUTICS, dated 2023).

Tests used:
[1] = biological target: T1, recombinant human TfR1 (transferrin receptor protein 1) (human, UniProt P02786 89-760); assay: kinetic analysis (Biacore), Table 7; TfR1 species not stated
T1 construct: Recombinant protein in SPR and ELISA; they were assigned to this molecule; also called hTfR1; huTfR1

[2] = biological target: T1, recombinant human TfR1 (transferrin …); assay: Table 14, unconjugated Fab, d0; method not named (values equal ELISA row of Table 13)
[3] = biological target: T2, recombinant cynomolgus monkey (Macaca fascicularis) TfR1 (cynomolgus monkey (Macaca fascicularis), UniProt Q5RDH6 87-760 (Pongo abelii entry), limits assumed); assay: as above
T2 construct: Recombinant protein; also called cTfR1; cyTfR1
T2 chain: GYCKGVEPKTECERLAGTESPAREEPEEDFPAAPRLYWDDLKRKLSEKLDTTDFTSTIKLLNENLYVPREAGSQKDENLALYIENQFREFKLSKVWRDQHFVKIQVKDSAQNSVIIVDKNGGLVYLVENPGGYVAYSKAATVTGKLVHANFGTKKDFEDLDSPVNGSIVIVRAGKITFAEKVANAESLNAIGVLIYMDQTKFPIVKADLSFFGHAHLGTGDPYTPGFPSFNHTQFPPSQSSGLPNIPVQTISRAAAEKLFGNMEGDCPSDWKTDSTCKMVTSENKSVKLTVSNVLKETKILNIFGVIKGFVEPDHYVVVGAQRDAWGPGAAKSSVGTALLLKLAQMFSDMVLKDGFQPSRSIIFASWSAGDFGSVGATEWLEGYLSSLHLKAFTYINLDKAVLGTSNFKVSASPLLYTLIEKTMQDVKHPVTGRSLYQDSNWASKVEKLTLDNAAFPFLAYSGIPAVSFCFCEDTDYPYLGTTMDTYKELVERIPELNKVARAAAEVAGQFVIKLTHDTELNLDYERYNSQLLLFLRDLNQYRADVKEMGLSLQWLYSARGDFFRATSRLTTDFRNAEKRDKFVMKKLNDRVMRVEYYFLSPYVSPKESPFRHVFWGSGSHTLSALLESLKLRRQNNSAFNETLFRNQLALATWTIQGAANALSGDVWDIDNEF

[4] = biological target: T1, recombinant human TfR1 (transferrin …); assay: surface plasmon resonance
[5] = biological target: T2, recombinant cynomolgus monkey (Macaca …); assay: surface plasmon resonance
[6] = biological target: T1, recombinant human TfR1 (transferrin …); assay: ELISA on plate-coated recombinant hTfR1, fluorescent anti-(H+L) IgG-A488 detection, % normalized RFUs
Method: To measure binding of humanized anti-TfR antibodies to TfR1, ELISAs were conducted. High binding, black, flat bottom, 96 well plates (Corning #3925) were first coated with 100 μL/well of recombinant huTfR1 at 1 μg/mL in PBS and incubated at 4° C. overnight. Wells were emptied and residual liquid was removed. Blocking was conducted by adding 200 μL of 1% BSA (w/w) in PBS to each well. Blocking was allowed to proceed for 2 hours at room temperature on a shaker at 30) rpm. After blocking, liquid was removed and wells were washed three times with 300 μL of TBST. Anti-TfR1 antibodies were then added in 0.5% BSA/TBST in triplicate in an 8 point serial dilution (dilution range 5 μg/mL-5 ng/mL). A positive control and isotype controls were also included on the ELISA plate. The plate was incubated at room temperature on an orbital shaker for 60 minutes at 300 rpm, and the plate was washed three times with 300 μL of TBST. Anti-(H+L)IgG-A488 (1:500) (Invitrogen #A11013) was diluted in 0.5% BSA in TBST, and 100 μL was added to each well. The plate was then allowed to incubate at room temperature for 60 minutes at 300 rpm on orbital shaker. The liquid was removed and the plate was washed four times with 300 μL of TBST. […] Data was recorded and analyzed for $EC50$. […]

[7] = biological target: T3, recombinant human TfR2 (transferrin receptor 2) (human, UniProt Q9UP52 105-801, limits assumed); assay: ELISA on plate-coated recombinant human TfR2, anti-(H+L) IgG-A488 secondary
T3 construct: Recombinant protein in ELISA and SPR; also called hTfR2
T3 sequence (looked up): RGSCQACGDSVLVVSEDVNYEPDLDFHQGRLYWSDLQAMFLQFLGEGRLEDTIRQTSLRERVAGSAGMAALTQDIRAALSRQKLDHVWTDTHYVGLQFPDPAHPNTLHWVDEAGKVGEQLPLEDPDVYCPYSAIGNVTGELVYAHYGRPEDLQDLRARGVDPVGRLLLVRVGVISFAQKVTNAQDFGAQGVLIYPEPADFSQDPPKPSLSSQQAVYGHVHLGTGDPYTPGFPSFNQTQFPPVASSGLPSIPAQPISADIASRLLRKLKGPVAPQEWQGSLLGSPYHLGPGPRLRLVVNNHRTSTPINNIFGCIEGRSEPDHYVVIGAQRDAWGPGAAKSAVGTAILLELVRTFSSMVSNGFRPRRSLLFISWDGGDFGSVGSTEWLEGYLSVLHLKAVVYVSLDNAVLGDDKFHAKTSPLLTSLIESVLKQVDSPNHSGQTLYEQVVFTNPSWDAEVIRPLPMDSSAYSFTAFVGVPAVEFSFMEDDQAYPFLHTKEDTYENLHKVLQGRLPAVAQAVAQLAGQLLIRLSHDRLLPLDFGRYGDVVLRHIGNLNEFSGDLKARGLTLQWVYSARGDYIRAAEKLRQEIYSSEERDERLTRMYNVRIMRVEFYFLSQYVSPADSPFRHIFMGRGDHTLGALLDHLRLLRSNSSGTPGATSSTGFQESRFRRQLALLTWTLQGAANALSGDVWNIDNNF
Method: Recombinant human TfR2 protein was plated overnight at […] and was blocked for 1 hour with 1% bovine serum albumin (BSA) in PBS. Serial dilutions of the Fab or a positive control anti-TfR2 antibody were added in 0.5% BSA/TBST for 1 hour. After washing, anti-(H+L) IgG-A488 (Invitrogen #MA5-25932) fluorescent secondary antibody was added at a 1:500 dilution in 0.5% BSA/TBST and the plate was incubated for 1 hour. Relative fluorescence was measured using a Biotek Synergy plate reader at 495 nm excitation and 520 nm emission.

Kd [1]: 0.341 nM
koff [1]: 8.61e-05 s⁻¹
kon [1]: 252000 M⁻¹ s⁻¹
Binding affinity [2]: 0.5 nM
Binding affinity [3]: 2.2 nM
Kd [4]: 0.768 nM
koff [4]: 0.000127 s⁻¹
kon [4]: 166000 M⁻¹ s⁻¹
Kd [5]: 5.18 nM
koff [5]: 0.000476 s⁻¹
kon [5]: 91900 M⁻¹ s⁻¹
EC50 [6]: 2.1 nM
binding result [7]: no binding (tested: 500 nM)
B1: humanized anti-TfR Fab 3M12 VH4/Vκ3 (Fab, V domains shown)
VH: QVQLQESGPGLVKPSQTLSLTCTVTGYSITSGYYWNWIRQPPGKGLEWIGYITFDGANNYNPSLKNRVSISRDTSKNQFSLKLSSVTAEDTATYYCTRSSYDYDVLDYWGQGTTVTVSS
VL: DIQMTQSPSSLSASVGDRVTITCRASQDISNFLNWYQQKPGQPVKLLIYYTSRLHSGVPSRFSGSGSGTDFTLTISSLQPEDFATYYCQQGHTLPYTFGQGTKLEIKR
notes: also called 3M12 (VH4/Vk3); anti-TfR Fab 3M12 VH4/Vk3
